The test system of this assay is murine macrophage RAW264.7 cells. In words: Osteoclastic differentiation of RAW264.7 cells (TRAP stain). It counts as cell-based. The conditions noted are these: for osteoclast differentiation of RAW264.7 (TRAP): no graft carrier. The protocol: Grafts (5×5×1 mm, FlexBone 25% HA-25% TCP) were pre-absorbed with varying amounts of growth factors and cytokines to provide an exogenous supply for remodeling. […] The preferred loading dose of RANKL (10 ng/FlexBone graft) was determined by the osteoclastic differentiation of macrophage RAW264.7, induced by the RANKL released from the graft as indicated by positive TRAP stains (purple) of multinucleated cells on Day 6. […] Finally, the preferred loading dose of rhVEGF165 in stimulating the proliferation of human vascular endothelial cells in culture was determined to be 5 ng/graft.
Osteoclastic differentiation of murine macrophage RAW264.7 cells induced by the rmRANKL released from FlexBone. The bioactivity of the exogenous rmRANKL released from FlexBone is evaluated by its ability to induce osteoclastic differentiation of murine macrophage RAW264.7 cells six days after placing the FlexBone graft pre-loaded with rnRANKL in the RAW264.7 culture. RAW264.7 cells were seeded at 10,000/cm^2 in a 24-well plate in alpha-MEM (0.5 mL/well) supplemented with 10% FBS and 1% Pen-Strep, and allowed to attach overnight. One FlexBone or pHEMA graft freshly loaded with 10-ng rmRANKL was then added to each well (N=3 for each combination) on day one, and the culture was continued for 6 days with media change every two days without additional supplement of rmRANKL. In the positive control well, 10 ng rmRANKL was supplemented directly in the culture media without a graft carrier every two days. In the negative control well, 10 ng rmRANKL was supplemented directly in the culture media without a graft carrier on day one, and the medium was changed every two days without any additional supplement of rmRANKL. […] Grafts were removed from all wells before the cells were stained for tartrate-resistant acid phosphatase (TRAP) activities using the Sigma TRAP kit following the manufacturer's instructions.

B1: rmRANKL: recombinant receptor activator of nuclear factor κ ligand, purchased from R&D Systems (protein, UniProt O35235 139-316, looked up)
Tumor necrosis factor ligand …: FSGAPAMMEGSWLDVAQRGKPEAQPFAHLTINAASIPSGSHKVTLSSWYHDRGWAKISNMTLSNGKLRVNQDGFYYLYANICFRHHETSGSVPTDYLQLMVYVVKTSIKIPSSHNLMKGGSTKNWSGNSEFHFYSINVGGFFKLRAGEEISIQVSNPSLLDPDQDATYFGAFKVQDID
Turning to B1, the “osteoclast differentiation of RAW264.7 (TRAP)” value (continued supplement of 10-ng every other day, day six) is given as “led to the formation of TRAP-positive multinucleated osteoclasts by day six” and the “osteoclast differentiation of RAW264.7 (TRAP)” value (single supplement of 10-ng directly to the culture) is listed as “not sufficient in inducing the osteoclast differentiation”. Also, the preferred loading dose (determined by osteoclastic differentiation of RAW264.7, TRAP stains on Day 6) was 10 ng/FlexBone graft. Also, the “supplement needed every other day to induce differentiation” value (no graft control) is 5 ng.

Source of the values: US20100159011A1, “Compositions For Biomedical Applications” (University of Massachusetts Medical School, priority 2007, published 2010).
